Measurements: US20250043302A1, “MUTATED HYDROXYPHENYLPYRUVATE DIOXYGENASE POLYPEPTIDE, AND CODING GENE AND USE THEREOF” (BEIJING DABEINONG BIOTECHNOLOGY CO., LTD., priority 2021, published 2025)

Legend:
[1] = system: Arabidopsis thaliana T1 plants; test: Mesotrione tolerance of transgenic Arabidopsis thaliana T1 plants (spray, bleached leaf area grade, damage score); type: in vivo; parameters: Scores: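 damage score 0-100 computed as Σ(N×S)/(T×M)×100 over grades 0-3 with higher meaning more damage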; conditions: for Classification and statistics of the grade of pesticide damage Grade 0 / Classification and statistics of the grade of pesticide damage Grade 1 / Classification and statistics of the grade of pesticide damage Grade 2 / Classification and statistics of the grade of pesticide damage Grade 3: number of plants in grade
How it was run: (§1)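 Damage was assessed by bleaching grade (0 none; 1 <50%; 2 >50%; 3 100% of leaf area) one week after spraying. Sprays on 18-day-old T1 and wild-type plants used field-rate multiples: topramezone 25–200, isoxaflutole 35–280, mesotrione 52.5–420 g ai/ha.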

[2] = system: Arabidopsis thaliana T1 plants; test: Isoxaflutole tolerance of transgenic Arabidopsis thaliana T1 plants (spray, bleached leaf area grade, damage score); type: in vivo; conditions: for Classification and statistics of the grade of pesticide damage Grade 0 / Classification and statistics of the grade of pesticide damage Grade 1 / Classification and statistics of the grade of pesticide damage Grade 2 / Classification and statistics of the grade of pesticide damage Grade 3: number of plants in grade;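 on Scores: Weighted damage index from 0 to 100 where higher means more damage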
How it was run: as §1

B1: AsHPPDm-F372A-F383Y-02: nucleotide sequence encoding Avena sativa HPPD with F372A+F383Y; vector DBN11796 (nucleic acid)
DNA: ATGCCACCTACTCCAGCTACAGCTACTGGTGCTGCTGCTGCTGCCGTTACTCCTGAGCACGCTGCCAGGTCATTCCCCAGGGTGGTTCGCGTGAACCCCAGATCTGATAGGTTCCCAGTTCTGAGCTTCCACCATGTTGAGCTGTGGTGCGCTGATGCTGCTTCTGCTGCTGGCAGGTTCTCTTTCGCTCTTGGTGCTCCACTCGCTGCTAGATCTGATCTGTCTACAGGAAATAGCGCTCATGCCTCACTCCTGCTTCGCTCAGGTGCTTTGGCCTTCCTCTTCACCGCTCCATATGCTCCCCCACCTCAGGAGGCTGCTACTGCTGCTGCTACAGCCTCCATTCCAAGCTTCTCAGCTGATGCCGCTAGAACCTTCGCTGCTGCTCATGGACTTGCCGTGAGGTCTGTTGGTGTTCGCGTGGCTGATGCTGCTGAGGCTTTCAGAGTTTCCGTTGCCGGCGGAGCTAGGCCAGCTTTCGCTCCTGCTGATTTGGGACATGGTTTCGGCCTGGCTGAGGTTGAGCTTTACGGTGACGTGGTTCTCCGCTTCGTGTCTTACCCAGATGAGACTGACCTGCCTTTCCTTCCCGGCTTCGAGAGAGTTTCCTCTCCTGGTGCCGTGGATTACGGCCTGACAAGGTTCGACCACGTGGTTGGAAACGTTCCCGAGATGGCTCCAGTGATCGATTACATGAAGGGCTTCCTTGGATTCCATGAGTTCGCCGAGTTCACTGCTGAGGACGTGGGAACCACTGAGTCCGGTTTGAACTCTGTGGTTCTCGCCAACAATTCTGAGGCTGTTTTGCTCCCTCTGAATGAGCCTGTGCATGGAACCAAGAGGAGAAGCCAGATTCAAACTTACCTGGAGTACCACGGTGGCCCTGGAGTTCAGCATATCGCCCTTGCTTCTAATGATGTGTTGCGCACACTCAGAGAGATGCGCGCCAGAACCCCCATGGGAGGTTTCGAGTTCATGGCCCCACCACAGGCTAAGTACTACGAGGGCGTTAGAAGGATTGCTGGAGACGTGTTGAGCGAGGAGCAGATCAAGGAGTGCCAAGAGCTGGGTGTTCTTGTGGATAGGGATGACCAGGGCGTTCTGCTTCAAATTGCCACTAAGCCAGTGGGCGACCGCCCTACATTCTATCTTGAGATGATTCAAAGAATCGGCTGCATGGAGAAGGATGAGGTTGGACAGGAGTACCAAAAGGGCGGATGCGGTGGCTTCGGAAAGGGTAACTTCAGCGAGTTGTTCAAGTCAATCGAGGACTACGAGAAGAGCCTCGAGGTGAAGCAGTCAGTGGTTGCCCAAAAGTCCTGA
modifications: AsHPPDm-F372A-F383Y-02 Nucleotide Sequence
notes: vector DBN11796
[1]; mesotrione 210 g ai/ha
  Resistance evaluation: Moderately
  Scores: 33
  Classification and statistics of the grade of pesticide damage Grade 0: 5
  Classification and statistics of the grade of pesticide damage Grade 1: 6
  Classification and statistics of the grade of pesticide damage Grade 2: 5
  Classification and statistics of the grade of pesticide damage Grade 3: 0
[1]; mesotrione 420 g ai/ha
  Resistance evaluation: Poorly resistant
  Scores: 52
  Classification and statistics of the grade of pesticide damage Grade 0: 0
  Classification and statistics of the grade of pesticide damage Grade 1: 8
  Classification and statistics of the grade of pesticide damage Grade 2: 7
  Classification and statistics of the grade of pesticide damage Grade 3: 1
[2]; isoxaflutole 140 g ai/ha
  Resistance evaluation: Moderately
  Scores: 33
  Classification and statistics of the grade of pesticide damage Grade 0: 5
  Classification and statistics of the grade of pesticide damage Grade 1: 6
  Classification and statistics of the grade of pesticide damage Grade 2: 5
  Classification and statistics of the grade of pesticide damage Grade 3: 0
[2]; isoxaflutole 280 g ai/ha
  Resistance evaluation: Poorly
  Scores: 67
  Classification and statistics of the grade of pesticide damage Grade 0: 0
  Classification and statistics of the grade of pesticide damage Grade 1: 0
  Classification and statistics of the grade of pesticide damage Grade 2: 16
  Classification and statistics of the grade of pesticide damage Grade 3: 0
